Results from article PMC10457771.
“And” between values parts separate entries of the source, which are not always exact repeats. Equal entries are not always repeated.

Tests used:
[1] = target: tail sheath protein, gp6 (Vibrio phage XM1); assay: cryo-EM structure; empty XM1 particles with contracted tail sheath (post-infection form); 6-fold-symmetric reconstruction, 9.1Å; models of the extended state fitted (Situs ddforge, Coot)
[2] = target: tail sheath protein, gp6 (Vibrio phage XM1); assay: cryo-EM structure; purified XM1 virions in SM buffer; 6-fold-symmetric reconstruction of the distal part of the extended tail (baseplate, part of tail tube and sheath), 3.2Å; interfaces analysed with PISA
[3] = target: dodecameric head completion protein, gp1 (Vibrio phage XM1); assay: cryo-EM structure; purified XM1 virions in SM buffer; 6-fold-symmetric reconstruction of the portal and neck region and 12-fold-symmetric reconstruction of the portal, 3.6Å; interfaces analysed with PISA
[4] = target: minor capsid protein (decoration protein, Dec), gp53 (Vibrio phage XM1); assay: cryo-EM structure; purified XM1 virions in SM buffer; icosahedrally averaged reconstruction of the capsid, 3.2Å
[5] = target: central baseplate organization protein, gp11 (Vibrio phage XM1); assay: cryo-EM structure; purified XM1 virions in SM buffer; 6-fold-symmetric reconstruction of the distal part of the extended tail (baseplate, part of tail tube and sheath), 3.2Å; interfaces analysed with PISA
[6] = target: collar spike protein, gp40 (Vibrio phage XM1); assay: cryo-EM structure; purified XM1 virions in SM buffer; 6-fold-symmetric reconstruction of the portal and neck region and 12-fold-symmetric reconstruction of the portal, 3.6Å; interfaces analysed with PISA
[7] = target: portal protein, gp49 (Vibrio phage XM1); assay: as above
[8] = target: tail tube protein, gp7 (Vibrio phage XM1); assay: cryo-EM structure; purified XM1 virions in SM buffer; 6-fold-symmetric reconstruction of the distal part of the extended tail (baseplate, part of tail tube and sheath), 3.2Å; interfaces analysed with PISA
[9] = target: hexameric head completion protein, gp4 (Vibrio phage XM1); assay: cryo-EM structure; purified XM1 virions in SM buffer; 6-fold-symmetric reconstruction of the portal and neck region and 12-fold-symmetric reconstruction of the portal, 3.6Å; interfaces analysed with PISA
[10] = target: tail terminator protein, gp5 (Vibrio phage XM1); assay: as above
[11] = target: major capsid protein (MCP), gp54 (Vibrio phage XM1); assay: cryo-EM structure; purified XM1 virions in SM buffer; icosahedrally averaged reconstruction of the capsid, 3.2Å

## tail sheath protein, gp6 (natural protein)
[1]
  stoichiometry N: 6
[2]
  stoichiometry N: 6

## dodecameric head completion protein, gp1 (natural protein)
[3]
  stoichiometry N: 12

## minor capsid protein (decoration protein, Dec), gp53 (natural protein)
[4]
  stoichiometry N: 3

## central baseplate organization protein, gp11 (natural protein)
[5]
  stoichiometry N: 6

## collar spike protein, gp40 (natural protein)
[6]
  stoichiometry N: 3

## portal protein, gp49 (natural protein)
[7]
  stoichiometry N: 12

## tail tube protein, gp7 (natural protein)
[8]
  stoichiometry N: 6

## hexameric head completion protein, gp4 (natural protein)
[9]
  stoichiometry N: 6

## tail terminator protein, gp5 (natural protein)
[10]
  stoichiometry N: 6

## major capsid protein (MCP), gp54 (natural protein)
[11]
  stoichiometry N: 6 and 5
